Data as given in the supplement of paper PMC10724198.
± gives the standard deviation of the averaged measurements.

Each sequence was assayed on Saccharomyces cerevisiae (assay: protein stability index of tFT-peptide fusion (C-terminal peptide) (PSI (0-1 scale)); higher = more stable (slower turnover)). Conditions: genetic background: wild type; temperature: 30 C.
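Further: PSI is a weighted mean of sequencing reads over stability bins, variants kept only with over 10 reads, mCherry proximal and sfGFP distal, peptide attached via GGGS linker.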

Sequence	protein stability index
LSARPFPPLMYS	0.6968 ± 0.0025
LSASALEFSSPP	0.699 ± 0.0069
LSFAGLPFCPGL	0.722 ± 0.13
LSFRPPLHPFAL	0.695 ± 0.01
LSFSPSFLPDSP	0.782 ± 0.062
LSGSSNRVLFDL	0.728 ± 0.053
LSHAHLSPTSSA	0.708 ± 0.088
LSILVGDREGSV	0.753 ± 0.13
LSLCYCALTSSN	0.541 ± 0.0097
LSLFFSSFLITF	0.628 ± 0.12
LSLFISPTACLT	0.584 ± 0.01
LSLFLAWSLFFL	0.487 ± 0.083
LSLFLPFRFFRS	0.699 ± 0.025
LSLFSLSPSFSR	0.718 ± 0.013
LSLPFLYCFATL	0.518 ± 0.0056
LSLSPLPAPCPP	0.713 ± 0.071
LSLTIYVSELFR	0.587 ± 0.0084
LSNGVCSVSFLL	0.672 ± 0.024
LSPCCFLTSSSF	0.71 ± 0.033
LSPHPPITHPTP	0.683 ± 0.034
LSPLIHSPRPFA	0.752 ± 0.061
LSPPLPARPAAS	0.687 ± 0.034
LSPPLRFPPPPP	0.709 ± 0.073

Sequence	protein stability index
LSPSLPLPNPSP	0.729 ± 0.044
LSPSMSRLWGSK	0.7365 ± 0.0033
LSPSSPHLPFPL	0.702 ± 0.038
LSRGPYRPHVNP	0.69 ± 0.051
LSRPPPPLLPSV	0.749 ± 0.03
LSRSSQPLPPPH	0.7306 ± 0.0021
LSSGCSVKLRAQ	0.67 ± 0.015
LSSGPARVMVVL	0.608 ± 0.04
LSSLHFRFLSAG	0.62 ± 0.062
LSSLLFSPLPPS	0.7593 ± 0.0019
LSSWTYTRFLHG	0.749 ± 0.085
LSTCIMFRSCGG	0.693 ± 0.041
LSTMPLFPSLHR	0.731 ± 0.025
LSVFDTSLFFSS	0.787 ± 0.099
LSWSLSSFACEM	0.65 ± 0.014
LSYRYPLYPILL	0.647 ± 0.018
LTACLRRTNTLM	0.503 ± 0.0041
LTASRLAGSGGE	0.69 ± 0.023
LTATNEARNIDH	0.659 ± 0.027
LTCYFSASNVLW	0.615 ± 0.046
LTDCIHERKGTE	0.743 ± 0.017
LTFGAPGACGLG	0.719 ± 0.024
LTGAQPTDPNMR	0.697 ± 0.071

Sequence	protein stability index
LTGFYFFFDMTL	0.6366 ± 0.0032
LTLCRSPMSLRA	0.633 ± 0.12
LTPAPSSCLRSP	0.6857 ± 0.005
LTPLPPPPLRPP	0.599 ± 0.024
LTRRCPVGAWGN	0.692 ± 0.012
LTSGTVLVLSSL	0.683 ± 0.03
LTSPPPPPARVP	0.739 ± 0.11
LTSRPIPFLLRG	0.666 ± 0.014
LTSWAKRMGLGD	0.731 ± 0.1
LTWCGVSEAVIA	0.50795 ± 0.00033
LTYVSGIASVYG	0.532 ± 0.019
LVALTSVLSALF	0.698 ± 0.069
LVCGIDSLVRLV	0.57 ± 0.029
LVCGIGFIYFGF	0.492 ± 0.014
LVCLWQGSSVLI	0.671 ± 0.023
LVCRRYSGDSSS	0.637 ± 0.023
LVDSSLTESLDV	0.645 ± 0.034
LVFCSLLSLFFS	0.557 ± 0.012
LVGSLGVYGVYV	0.665 ± 0.043
LVICPRVLRDFR	0.663 ± 0.05
LVILLLQLLSGT	0.51758 ± 0.00046
LVLFFRSYCLVV	0.5142 ± 0.0036
LVLKLWNKFFVD	0.65438 ± 0.00026

Sequence	protein stability index
LVLPASSPCLFF	0.647 ± 0.034
LVLSRSGPFSHL	0.7 ± 0.073
LVLTLIDGSWNV	0.7011 ± 0.0056
LVLVSFWWSGPM	0.526 ± 0.031
LVPPPPPPSPPP	0.6457 ± 0.004
LVRASDPLSVTI	0.689 ± 0.073
LVRILSRSVVRT	0.697 ± 0.078
LVRLNSHRYTSV	0.613 ± 0.035
LVSCPPPPAPPP	0.659 ± 0.06
LVSPSSPLLPPP	0.685 ± 0.082
LVSRLAGAVLGR	0.632 ± 0.014
LVSVSVGFFLLL	0.499 ± 0.047
LVSWFWPFSFFA	0.661 ± 0.098
LVVEYFLCGSIS	0.532 ± 0.035
LVVWSSIVSGGG	0.675 ± 0.05
LVYLQVFSSLLS	0.543 ± 0.014
LWGGVVGRVRGV	0.635 ± 0.037
LWGVVVGELGSC	0.723 ± 0.074
LWISVDEGQLCH	0.617 ± 0.042
LWPVSMTSSFFF	0.661 ± 0.048
LWRFMLGQGFEG	0.726 ± 0.022
LWVGVGRWLRGR	0.744 ± 0.014
LYAHVPSYRVSA	0.593 ± 0.058

Sequence	protein stability index
LYNVTRDTWVLS	0.66 ± 0.057
LYPSFSHTPPPT	0.69 ± 0.056
LYSPLLCRLPFP	0.666 ± 0.045
LYVLHCSLIEEV	0.543 ± 0.051
MAHAYTRKDTRK	0.64 ± 0.052
MAICRVLSQVFL	0.686 ± 0.12
MAIRSPACRLRF	0.674 ± 0.049
MAWGVGTRRLGW	0.679 ± 0.044
MCDSFFGHSVRN	0.699 ± 0.043
MCLWMGFWFACF	0.537 ± 0.024
MENAMHQLNRNT	0.679 ± 0.022
MFDSHQWVCIKD	0.785 ± 0.1
MGGKGRGGRREI	0.666 ± 0.041
MGSQATPQRENS	0.659 ± 0.12
MGVGINSGDKLC	0.667 ± 0.11
MGVGRFEWVVGG	0.665 ± 0.053
MGVHKQQMRGQR	0.682 ± 0.036
MGYPGFGRVPYV	0.723 ± 0.053
MHLRFYFLKTDV	0.597 ± 0.02
MKIKIEINKNKT	0.654 ± 0.032
MKKVQENIKGKH	0.717 ± 0.11
MKRMIKREIKIK	0.679 ± 0.089
MKTSIQHNRNPG	0.659 ± 0.0096

Sequence	protein stability index
MLFLGPRLVVPA	0.565 ± 0.0097
MLRRSGEGVRLE	0.7218 ± 0.0045
MLYNQDIGQELL	0.652 ± 0.058
MMFRRLPTRGRF	0.6951 ± 0.0021
MNQELRNCKGNG	0.6259 ± 0.0034
MNRHLHFLSPET	0.648 ± 0.031
MQGCKAYSVGRQ	0.701 ± 0.061
MQLTRKEEKSQE	0.658 ± 0.023
MSEFDVPLPIYM	0.716 ± 0.063
MTRGSAPELWLL	0.655 ± 0.029
MVCSFVSLLGRF	0.69 ± 0.01
MVGGVLLSGCRF	0.6455 ± 0.0021
MVVLSGVLPVGD	0.642 ± 0.0077
MWLGSGCWVNGL	0.735 ± 0.048
MWQSRSAYFGSN	0.692 ± 0.075
MWYCGVSGPGNG	0.6859 ± 0.0013
MYHGKKTAGINV	0.7 ± 0.037
MYRLSFAAGRGS	0.688 ± 0.016
NAFTMWVSRQAR	0.77 ± 0.02
NALFGWMRGCLS	0.724 ± 0.034
NARMPPHIVAGI	0.64 ± 0.034
NASVRMFIRTGC	0.6971 ± 0.00097
NCMFKSNKQGGA	0.6749 ± 0.0021

Sequence	protein stability index
NCPIQEPVSAIY	0.661 ± 0.007
NCTHKKKTLTPN	0.726 ± 0.012
NDGSDYRFLSLK	0.706 ± 0.011
NECKIKKDNTKK	0.672 ± 0.06
NEEVAKKKKIRV	0.667 ± 0.061
NEINKPTRSQTA	0.644 ± 0.04
NENFILCPRVNL	0.701 ± 0.035
NESSASKEKSNI	0.69 ± 0.038
NFQLIKKHSKNN	0.63552 ± 0.00029
NGGCCLVFRIEP	0.643 ± 0.029
NGQSELHDHYME	0.651 ± 0.013
NGSSFSRTVRFM	0.624 ± 0.038
NGVGGMHGINIM	0.696 ± 0.076
NHFQYHSPVASE	0.688 ± 0.028
NHLANHAGCQKT	0.667 ± 0.028
NHSTGLYAARLR	0.725 ± 0.041
NHVAPNSPSPQD	0.731 ± 0.027
NIIQTYITLNEL	0.74 ± 0.12
NIMNKIFQKQKE	0.642 ± 0.092
NIPAAGCPRATA	0.711 ± 0.033
NKEPKRKHKNNK	0.675 ± 0.017
NKIKTSRKKNNQ	0.723 ± 0.017
